In the RNAGym collection of RNA variant scans (doi:10.7554/elife.90254):

B1: LINE1-full (parent)
chain: UACGUAGGUGGUUUUCCCCUGAUAGUGCUAAGGGGGCCUGGAAGUUUGGACUGGGCAGAGCUCAACACAGCGUGGCAAAGUGGCUGUGGCUAGACUGCCUCUCUGGAUUCCUCGUCACUCAGCAGGGCAUCUCUGAGAGAAAUGCC

Variants of: B1
Assay: self-cleavage, relative activity (ratio to wild type); higher = more cleavage; in vitro, sequencing; the parent is a self-cleaving ribozyme

Variant | self-cleavage
U12C U45G | 1.35
U12C U45C | 0.98
U12C U45A | 0.88
G11C U20A | 0.54
U12C C116U | 0.77
U12C G35U | 1.53
U12A C16A | 0.97
U12C U109A | 1.49
U12A U102A | 1.79
U12C A77U | 1.26
U12C A77G | 1.8
U12C G72A | 1.25
U12C A129U | 1.53
U12C A129C | 1.99
U12G A24U | 1.5
G11A U109C | 1.4
U12C G41U | 1.25
U12C C113A | 0.64
U12C C113U | 0.76
U12A U119C | 1.54
U12C G135U | 1.57
U12A G70A | 0.18
U12C U23A | 1.08
U12C A78U | 1.52

Variant | self-cleavage
U12A | 1.17
U12G | 1.13
U12C | 1.29
U12A C51A | 1.16
U12A A141U | 0.64
U12C A138U | 1.21
U12C C120A | 1.47
U12C C120U | 1.43
U12C G36C | 0.95
U12A A136G | 2.03
U12C A107G | 0.99
U12C G48A | 0.97
U12C G82C | 2.15
G11C A67G | 0.46
U12A C18G | 1.01
U12C G75C | 0.66
U12C U85A | 0.06
U12C U39G | 0.84
G11A U132C | 1.03
U12C U20A | 1.23
U12C U20G | 0.78
U12C G106A | 1.68
U12A A30U | 1.63
U12A U85C | 0.2

Variant | self-cleavage
U12C U47C | 1.42
U12A U45G | 1.33
U12G A30G | 1.2
G11C A50G | 0.71
G11U A129G | 0.83
G11A U96C | 0.08
U12C A24U | 1.18
U12C A24C | 1.61
U12A A31U | 2
U12A U23A | 1.58
U12A U23C | 1.47
U12A U87A | 0.11
U12C C19U | 1.08
U12C U132C | 1.13
U12C U132A | 1.31
U12A A57G | 1.23
U12C U46A | 1.24
U12C U46G | 0.82
U12C A117G | 1.84
U12C U73G | 1.29
U12A A117U | 1.36
U12A A64G | 0.27
U12A A64U | 0.79
U12C A136U | 1.43

Variant | self-cleavage
U12A C76U | 1.23
G11C | 1.42
G11U | 1.56
G11U C118U | 0.91
U12A G72A | 1.41
U12A A92G | 0
U12C U134G | 1.97
U12C U134C | 1.3
U12A A124U | 1.23
U12A A124G | 0.87
U12C C131U | 1.29
U12C U143A | 1.25
U12C C56A | 0.01
U12A U91A | 0.82
U12A U91C | 0.54
U12C A57G | 1
U12C U15A | 0.7
U12C U15C | 1.05
U12A U62C | 0.12
U12A U62G | 0.06
U12A U62A | 0.05
U12C A124U | 1.29
U12A G53C | 1.12
U12C A64G | 0.28

Variant | self-cleavage
U12A U14A | 0.27
U12C A79G | 1.1
G11U A69G | 0.44
G11U A42G | 1.58
U12C G144A | 1.08
U12C U91A | 0.64
U12C C99G | 0.63
U12C C146A | 1.45
U12C C146U | 1.63
U12C A42C | 0.85
U12C A42G | 1.48
U12A A42U | 1.75
U12A A42G | 1.28
U12C A22U | 1.68
U12A U112C | 1.3
U12A U100C | 1.64
U12A A94U | 0.51
U12C U130C | 1.4
U12A U13A | 1.08
U12C C17U | 1.3
U12A A22G | 1.14
U12C U96G | 0.28
G11A U112C | 1.37
U12C A65U | 0.21

Variant | self-cleavage
U12A U143C | 1.14
U12A U143A | 1.28
U12C A59G | 0.15
U12C A69U | 0.09
U12C A69G | 0.64
U12C C38U | 1.16
U12C G49A | 1.28
U12C A50G | 1.15
U12C A50U | 1.54
G11C U109C | 2.63
U12A C66U | 0.06
U12C A94G | 0.37
G11A U104C | 1.59
U12C G83U | 1.07
G11C A138G | 1.22
U12C U87A | 0.06
U12C U119A | 1.78
U12C U104C | 1.56
U12C U104A | 1.3
U12C G34C | 1.34
U12C U14C | 1.12
U12A A138U | 1.02
U12A A59C | 0.61
U12A A59G | 0.27

Variant | self-cleavage
U12C A142G | 1.13
U12C A31G | 1.24
G11A U119C | 0.93
U12C U26C | 1.39
U12C U26A | 1.03
U12A U115C | 1.21
U12A U115A | 1.58
G11U A59U | 1.02
U12G A22G | 1.04
U12C G80A | 0.84
U12A U96C | 0.28
U12A A107U | 1.61
U12A U20C | 1.05
U12C U115A | 0.87
U12C U115G | 2.63
U12A U52G | 2.35
U12C U52G | 1.84
U12C U52C | 1.11
U12A A43G | 0.85
U12A U132C | 1.41
U12A G21A | 1.08
U12C U102C | 1.18
U12C U102G | 0.88
